± gives the uncertainty stated by the source.

In the Human Domainome abundance scans (Beltran et al. 2025) one finds abundance fitness data, which are given here for 62 variants.

Sequences and labels used below:
B1: Activity-dependent neuroprotector homeobox protein, residues 770 to 810; numbered along this chain, Q9H2P0 (parent)
chain: FLTKYFNKQPYPTRREIEKLAASLWLWKSDIASHFSNKRKK

The series covers variants of B1. Nature of the series: abundance fitness (aPCA) (normalised: wild type 0, dead -1); higher = more abundant; growth selection in yeast, the domain comes from the species named. As to conditions: Homo sapiens.
On to FLTKYFNKQPYPTRREIEKLAASLWLMKSDIASHFSNKRKK [W27M], for which the abundance fitness was -0.031 ± 0.099. Consider FLTKYFNKQPYPTRREIEKLAASLWLEKSDIASHFSNKRKK [W27E], for which the abundance fitness is -0.74 ± 0.33.

FLTKYFNKQPYPTRREIEKLAASLWLTKSDIASHFSNKRKK [W27T]: the abundance fitness is -0.152 ± 0.062. To FLTKYFNKQPYPTRREIEKLAASLWLLKSDIASHFSNKRKK [W27L] belongs -0.04 ± 0.05; to FLTKYFNKQPYPTRREIEKLAASLWLWTSDIASHFSNKRKK [K28T], 0.18 ± 0.048. To FLTKYFNKQPYPTRREIEKLAASLWLWISDIASHFSNKRKK [K28I] belongs 0.445 ± 0.055; to FLTKYFNKQPYPTRREIEKLAASLWLWNSDIASHFSNKRKK [K28N], -0.244 ± 0.076; to FLTKYFNKQPYPTRREIEKLAASLWLWQSDIASHFSNKRKK [K28Q], -0.184 ± 0.06. For the variant FLTKYFNKQEYPTRREIEKLAASLWLWKSDIASHFSNKRKK [P10E], the abundance fitness worked out at 0.158 ± 0.081.

Turning to FLTKYFNKQIYPTRREIEKLAASLWLWKSDIASHFSNKRKK [P10I], the abundance fitness was -0.114 ± 0.073. Under FLTKYFNKQPYPTRREIEKLAASLWLWKSDIASHFSNKWKK [R39W] stands 0.009 ± 0.087.

Regarding FLTKYFNKQPYPTRREIEKLAASLWLWKSDIASHFSNKQKK [R39Q], the abundance fitness is -0.195 ± 0.071. For the variant FLTKYFNKQPYPTRREIEKLAASLWLWKSDIASHFHNKRKK [S36H], the abundance fitness amounted to 0.01 ± 0.093. Consider FLTKYFNKQPIPTRREIEKLAASLWLWKSDIASHFSNKRKK [Y11I], for which the abundance fitness stood at 0.05 ± 0.087. Under FLTKYFNKQPQPTRREIEKLAASLWLWKSDIASHFSNKRKK [Y11Q] stands 0.181 ± 0.071; under FLTKYFNKQPGPTRREIEKLAASLWLWKSDIASHFSNKRKK [Y11G], 0.293 ± 0.051; under FLTKYFNKQPYPTRREIEKLAASLWLWKPDIASHFSNKRKK [S29P], 0.229 ± 0.098. To FLTKYFNKQPYPTRREIEKLAASLWLWKCDIASHFSNKRKK [S29C] belongs -0.206 ± 0.11. For the variant FLTKYFNKQPYPTRREIEKLAASLWLWKKDIASHFSNKRKK [S29K], the abundance fitness was 0.208 ± 0.094. Under FLTKYFNKQPYPTRREIEKLLASLWLWKSDIASHFSNKRKK [A21L] stands -0.082 ± 0.06; under FLTKYFNKQPYPTRREIEKLMASLWLWKSDIASHFSNKRKK [A21M], 0.083 ± 0.12; under FLTKYFNKQPYPTRREIEKLAASLWLWKSDIASHFSNFRKK [K38F], -0.269 ± 0.073. Consider FLTKYFNKQPYPTRREIEKLAASLWLWKSDIASHFSNIRKK [K38I], for which the abundance fitness was -0.182 ± 0.13.

With FLTKYFNKQPYPTRREIEKLAASLLLWKSDIASHFSNKRKK [W25L], the abundance fitness is 0.097 ± 0.063.

With FLTKYFNKQPYPTRREIEKLAASLHLWKSDIASHFSNKRKK [W25H], the abundance fitness was 0.071 ± 0.086. Turning to FLTKYFNKQPYPTRREIEKLAASLYLWKSDIASHFSNKRKK [W25Y], the abundance fitness is -0.233 ± 0.22. Take MLTKYFNKQPYPTRREIEKLAASLWLWKSDIASHFSNKRKK [F1M]: the abundance fitness was -0.176 ± 0.15. To FLTLYFNKQPYPTRREIEKLAASLWLWKSDIASHFSNKRKK [K4L] belongs -1 ± 0.36; to FLTGYFNKQPYPTRREIEKLAASLWLWKSDIASHFSNKRKK [K4G], -1.07 ± 0.24; to FLTNYFNKQPYPTRREIEKLAASLWLWKSDIASHFSNKRKK [K4N], -0.419 ± 0.18. Under FLTKYFNKQPYPTRREIEKLAASGWLWKSDIASHFSNKRKK [L24G] stands -0.228 ± 0.072; under FLTKYFNKQPYPTRREIEKLAASLWLWKSDIASQFSNKRKK [H34Q], -0.032 ± 0.054; under FLTKYFNKQPYPTRREIEKLAASLWLWKSDIASIFSNKRKK [H34I], 0.068 ± 0.075. FLTKYFIKQPYPTRREIEKLAASLWLWKSDIASHFSNKRKK [N7I]: the abundance fitness is -1.17 ± 0.2. To FLTKYFFKQPYPTRREIEKLAASLWLWKSDIASHFSNKRKK [N7F] belongs -1.24 ± 0.32; to FLTKYFPKQPYPTRREIEKLAASLWLWKSDIASHFSNKRKK [N7P], 0.017 ± 0.046; to FLTKYFTKQPYPTRREIEKLAASLWLWKSDIASHFSNKRKK [N7T], -0.215 ± 0.053. Under FLTKYFCKQPYPTRREIEKLAASLWLWKSDIASHFSNKRKK [N7C] stands -0.455 ± 0.15; under FLTKYFNKQPYPTRREHEKLAASLWLWKSDIASHFSNKRKK [I17H], -0.237 ± 0.06. To FLTKYFNRQPYPTRREIEKLAASLWLWKSDIASHFSNKRKK [K8R] belongs -0.22 ± 0.051. In the case of FLTKYFNKQPYPTRREIETLAASLWLWKSDIASHFSNKRKK [K19T], the abundance fitness was -0.302 ± 0.06. On to FLTKYFNKQPYPTRREIEELAASLWLWKSDIASHFSNKRKK [K19E], for which the abundance fitness is -0.241 ± 0.11. Consider FLTKYFNKQPYPTRREIEGLAASLWLWKSDIASHFSNKRKK [K19G], for which the abundance fitness is -0.221 ± 0.06. As to FLTKYFNKQPYPTRREIEFLAASLWLWKSDIASHFSNKRKK [K19F], the abundance fitness was -0.944 ± 0.14. Under FLTKYFNKQPYKTRREIEKLAASLWLWKSDIASHFSNKRKK [P12K] stands 0.062 ± 0.21. Take FLTKYFNKQPYETRREIEKLAASLWLWKSDIASHFSNKRKK [P12E]: the abundance fitness is 0.059 ± 0.091. To FLTKYFNKQPYMTRREIEKLAASLWLWKSDIASHFSNKRKK [P12M] belongs -0.114 ± 0.13. Under FLTKYVNKQPYPTRREIEKLAASLWLWKSDIASHFSNKRKK [F6V] stands -0.369 ± 0.05. FLTKYANKQPYPTRREIEKLAASLWLWKSDIASHFSNKRKK [F6A]: the abundance fitness is -0.235 ± 0.05. To FLTKYFNKQPYPTRREIEKLAASLWPWKSDIASHFSNKRKK [L26P] belongs 0.343 ± 0.058. For FLTKYFNKQPYPTRREIEKLAASLWEWKSDIASHFSNKRKK [L26E], the abundance fitness is 0.127 ± 0.061. For the variant FLTKYFNKQPYPTRREIEKLAASLWKWKSDIASHFSNKRKK [L26K], the abundance fitness turned out to be 0.341 ± 0.063. To FGTKYFNKQPYPTRREIEKLAASLWLWKSDIASHFSNKRKK [L2G] belongs -0.812 ± 0.066.

Consider FLTKYFNKIPYPTRREIEKLAASLWLWKSDIASHFSNKRKK [Q9I], for which the abundance fitness is -0.074 ± 0.1. In the case of FLTKYFNKQPYPTRREIEKLAASLWLWKSAIASHFSNKRKK [D30A], the abundance fitness is -0.247 ± 0.062.

Regarding FLTKYFNKQPYPTRREIEKLAASLWLWKSDIRSHFSNKRKK [A32R], the abundance fitness was determined as 0.029 ± 0.064. Consider FLTKYFNKQPYPKRREIEKLAASLWLWKSDIASHFSNKRKK [T13K], for which the abundance fitness is -0.046 ± 0.092. With FLTKYFNKQPYPIRREIEKLAASLWLWKSDIASHFSNKRKK [T13I], the abundance fitness is 0.101 ± 0.11. With FLTKYFNKQPYPTRREIEKSAASLWLWKSDIASHFSNKRKK [L20S], the abundance fitness is -0.243 ± 0.052. To FLTKYFNKQPYPTRREIEKLALSLWLWKSDIASHFSNKRKK [A22L] belongs -0.396 ± 0.058. On to FLTKYFNKQPYPTRREIEKLAMSLWLWKSDIASHFSNKRKK [A22M], for which the abundance fitness is -0.084 ± 0.071. Under FLTKYFNKQPYPTRREIEKLATSLWLWKSDIASHFSNKRKK [A22T] stands -0.087 ± 0.087.
